Patent US20250043302A1, “MUTATED HYDROXYPHENYLPYRUVATE DIOXYGENASE POLYPEPTIDE, AND CODING GENE AND USE THEREOF” (BEIJING DABEINONG BIOTECHNOLOGY CO., LTD., priority 2021, published 2025)
Where a chain is given by its changes, count along the chain named. Numbers in names are those of the source.

B1: BnHPPD-02: nucleotide sequence encoding wild-type Brassica napus HPPD; vector DBN11742 (nucleic acid)
DNA: ATGGGACATGAAAACGCGGCAGTGTGTGAAACTCAACAACATGATGACGCCGCCTCCCCGGGGTTTAAACTTGTCGGGTTCTCAAAATTTGTTAGGAAGAATCCAAAGTCTGACAAGTTCAAGGTGAAACGCTTCCACCACATCGAGTTCTGGTGCGGGGATGCAACAAATGTTTCACGCCGCTTTTCATGGGGACTAGGAATGAGGTTTAGCGCAAAGAGTGATCTCTCCACTGGTAATATGGTTCATGCGAGCTACTTGCTCACATCTGGAGACCTGAGATTCCTCTTCACCGCACCATATTCTCCCTCCCTGTCAGCTGGTGAAGCTCAGCCTTCAGCAACTGCAAGTATCCCTTCGTTTGATCATGCATCGTGCAGGTCTTTCTTCAGTTCACATGGACTCGGCGTCAGAGCAGTAGCGATCGAAGTAGAGGATGCTGAATCAGCTTTCTCCATATCTGTCGCCAACGGCGCGGTGCCTTCTTCTCCACCAAACGTCTTGAATGGTGCTGTTACCATTGCTGAGGTGAAGCTGTACGGAGATGTTGTTTTAAGATATGTTTCATATTACAATGGGACCGTTTCTTTTCTTCCCGGCTTTGAATCTGTTGATGATACTTCTTCCTTCCCTCTTGATTATGGGATCAGGCGGCTGGACCACGCCGTCGGCAACGTGCCGGAGTTAGGTCCTGCTTTGACATATCTTGCCGGCTTCACTGGATTCCATCAATTTGCAGAGTTTACGGCTGACGACGTGGGGACCGCGGAGAGTGGGCTGAACTCAGCAGTCTTGGCCAACAATGATGAAATGGTGCTCCTCCCCATCAATGAACCTGTGCATGGAACAAAGAGAAAGTCGCAGATTCAAACATTTTTAGAGCACAATGAGGGAGCTGGGCTACAGCACCTCGCATTGATGTCAGAAGATATTTTTCGAACGTTGAGGGAGATGCGGAAACGATCTGGTGTAGGCGGCTTTGACTTCATGCCATCCCCTCCGCCAACCTACTACAAGAACCTGAAGAAGAGGGTTGGAGACGTCCTTTCCGAGGAGCAAATTGAAGAATGTGAGGAGCTTGGAATTCTGGTGGACAGAGATGATCAAGGAACACTACTTCAGATCTTCACAAAACCATTGGGCGACAGGCCAACGATATTCATTGAGATCATTCAGCGCGTTGGATGCATGAAGCGTGATGAGGAAGGGAAGGTCTACCAGAGTGGCGGTTGTGGTGGATTTGGAAAAGGAAATTTTTCTGAGCTGTTCAAAAGCATAGAAGAGTATGAGAAAACATTGGAGGCCAAGCAGCTTGTTGGTTGA
modifications: BnHPPD-02 Nucleotide Sequence
notes: vector DBN11742
B2: BnHPPDm-F372A-F383W-02: nucleotide sequence encoding Brassica napus HPPD with F372A+F383W; vector DBN11745 (nucleic acid)
DNA: B1 DNA with T1126G, T1127C, T1160G, C1161G
modifications: BnHPPDm-F372A-F383W-02 Nucleotide Sequence
notes: vector DBN11745
B3: BnHPPDm-F372A-02: nucleotide sequence encoding Brassica napus HPPD with F372A; vector DBN11743 (nucleic acid)
DNA: B1 DNA with T1126G, T1127C
modifications: BnHPPDm-F372A-02 Nucleotide Sequence
notes: vector DBN11743

Tested on: Arabidopsis thaliana T1 plants
Experiment: Isoxaflutole tolerance of transgenic Arabidopsis thaliana T1 plants (spray, bleached leaf area grade, damage score)
Format: in vivo
Set-up: Scores (pesticide damage): scale not given here
Details: isoxaflutole 35 g ai/ha (0.5x field concentration), spray, Arabidopsis thaliana T1 plants
Procedure, shortened: (§1)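 Damage was assessed by bleaching grade (0 none; 1 <50%; 2 >50%; 3 100% of leaf area) one week after spraying. Sprays on 18-day-old T1 and wild-type plants used field-rate multiples: topramezone 25–200, isoxaflutole 35–280, mesotrione 52.5–420 g ai/ha.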

Molecule	Resistance evaluation	Scores (pesticide damage)
B1	Non-resistant	100
B2	Moderately	29
B3	Poorly	52

Same assay, conditions: isoxaflutole 35 g ai/ha (0.5x field concentration), spray, Arabidopsis thaliana T1 plants, 16 plants

Molecule	Classification and statistics of the grade of pesticide damage: Grade 0 (number of plants)	Classification and statistics of the grade of pesticide damage: Grade 1 (number of plants)	Classification and statistics of the grade of pesticide damage: Grade 2 (number of plants)	Classification and statistics of the grade of pesticide damage: Grade 3 (number of plants)
B1	0	0	0	16
B2	5	8	3	0
B3	0	7	9	0

Same assay, conditions: isoxaflutole 70 g ai/ha (1x field concentration), spray, Arabidopsis thaliana T1 plants

Molecule	Resistance evaluation	Scores (pesticide damage)
B1	Non-resistant	100
B2	Moderately	33
B3	Non-resistant	100

Same assay, conditions: isoxaflutole 70 g ai/ha (1x field concentration), spray, Arabidopsis thaliana T1 plants, 16 plants

Molecule	Classification and statistics of the grade of pesticide damage: Grade 0 (number of plants)	Classification and statistics of the grade of pesticide damage: Grade 1 (number of plants)	Classification and statistics of the grade of pesticide damage: Grade 2 (number of plants)	Classification and statistics of the grade of pesticide damage: Grade 3 (number of plants)
B1	0	0	0	16
B2	3	10	3	0
B3	0	0	0	16

Tested on: Arabidopsis thaliana T1 plants
Experiment: Topramezone tolerance of transgenic Arabidopsis thaliana T1 plants (spray, bleached leaf area grade, damage score)
Format: in vivo
Details: number of plants; topramezone 25 g ai/ha (1×), 7 DAT; Table 4
Procedure, shortened: as §1

Molecule	Classification and statistics of the grade of pesticide damage: Grade 0	Classification and statistics of the grade of pesticide damage: Grade 1	Classification and statistics of the grade of pesticide damage: Grade 2	Classification and statistics of the grade of pesticide damage: Grade 3
B1	0	0	0	16
B2	6	6	4	0
B3	0	4	12	0

Same assay, conditions: number of plants; topramezone 100 g ai/ha (4×), 7 DAT; Table 4

Molecule	Classification and statistics of the grade of pesticide damage: Grade 0	Classification and statistics of the grade of pesticide damage: Grade 1	Classification and statistics of the grade of pesticide damage: Grade 2	Classification and statistics of the grade of pesticide damage: Grade 3
B1	0	0	0	16
B2	3	8	5	0
B3	0	0	0	16

Same assay, conditions: pesticide damage score 0-100; topramezone 25 g ai/ha (1×), 7 DAT; Table 4

Molecule	Scores
B1	100
B2	29
B3	58

Same assay, conditions: pesticide damage score 0-100; topramezone 100 g ai/ha (4×), 7 DAT; Table 4

Molecule	Scores
B1	100
B2	38
B3	100

Same assay, conditions: topramezone 25 g ai/ha (1×), 7 DAT; Table 4

Molecule	Resistance evaluation
B1	non-resistant (non-resistant plants (scores 68-100))
B2	moderately
B3	poorly

Same assay, conditions: topramezone 100 g ai/ha (4×), 7 DAT; Table 4

Molecule	Resistance evaluation
B1	non-resistant (non-resistant plants (scores 68-100))
B2	poorly
B3	non-resistant (non-resistant plants (scores 68-100))

Tested on: Arabidopsis thaliana T1 plants
Experiment: Mesotrione tolerance of transgenic Arabidopsis thaliana T1 plants (spray, bleached leaf area grade, damage score)
Format: in vivo
Set-up: Scores: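 damage score 0-100 computed as Σ(N×S)/(T×M)×100 over grades 0-3 with higher meaning more damage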
Details: mesotrione 52.5 g ai/ha; Arabidopsis thaliana T1 plants
Procedure, shortened: as §1

Molecule	Resistance evaluation	Scores
B1	Non-resistant	100
B2	Moderately	31
B3	Poorly resistant	63

Same assay, conditions: mesotrione 52.5 g ai/ha; Arabidopsis thaliana T1 plants; 16 plants

Molecule	Grade 0 (classification and statistics of the grade of pesticide damage; number of plants)	Grade 1 (classification and statistics of the grade of pesticide damage; number of plants)	Grade 2 (classification and statistics of the grade of pesticide damage; number of plants)	Grade 3 (classification and statistics of the grade of pesticide damage; number of plants)
B1	0	0	0	16
B2	5	8	2	1
B3	0	4	10	2

Same assay, conditions: mesotrione 105 g ai/ha; Arabidopsis thaliana T1 plants

Molecule	Resistance evaluation	Scores
B1	Non-resistant	100
B2	Poorly resistant	40
B3	Non-resistant	100

Same assay, conditions: mesotrione 105 g ai/ha; Arabidopsis thaliana T1 plants; 16 plants

Molecule	Grade 0 (classification and statistics of the grade of pesticide damage; number of plants)	Grade 1 (classification and statistics of the grade of pesticide damage; number of plants)	Grade 2 (classification and statistics of the grade of pesticide damage; number of plants)	Grade 3 (classification and statistics of the grade of pesticide damage; number of plants)
B1	0	0	0	16
B2	0	13	3	0
B3	0	0	0	16
